Data: paper PMC7566464

Molecular target: oxidised human Prdx6 (Peroxiredoxin 6), peroxidatic cysteine in the sulfenic acid form (human) (UniProt P30041)
Test: SEC; Sephadex G-75, 20 mM Tris-HCl pH 7.0, 500 ul of 2 mg/ml protein, void volume by Blue dextran

Substance: oxidised human Prdx6 (Peroxiredoxin 6), peroxidatic cysteine in the sulfenic acid form (from UniProt P30041 1-224) (enzyme)
- stoichiometry N: 2
